Experimental findings from paper PMC6861513, “Insight into the dimer dissociation process of the Chromobacterium violaceum (S)-selective amine transaminase” (Scientific Reports, 2019) are described below.

The data set concerns the molecule itself. As to the kind of experiment: crystal structure; PMP·Cv-ATA; holo-Cv-ATA crystals grown by sitting drop in 100 mM HEPES pH 7.5, 350 mM NaCl, 22.5% PEG 4000, 0.1 mM PLP, cryoprotected with 20 mM 1-(S)-phenylethylamine; space group P1; 1.67 Å.

B1: Chromobacterium violaceum (S)-selective amine transaminase, wild type (enzyme)
chain: MQKQRTTSQWRELDAAHHLHPFTDTASLNQAGARVMTRGEGVYLWDSEGNKIIDGMAGLWCVNVGYGRKDFAEAARRQMEELPFYNTFFKTTHPAVVELSSLLAEVTPAGFDRVFYTNSGSESVDTMIRMVRRYWDVQGKPEKKTLIGRWNGYHGSTIGGASLGGMKYMHEQGDLPIPGMAHIEQPWWYKHGKDMTPDEFGVVAARWLEEKILEIGADKVAAFVGEPIQGAGGVIVPPATYWPEIERICRKYDVLLVADEVICGFGRTGEWFGHQHFGFQPDLFTAAKGLSSGYLPIGAVFVGKRVAEGLIAGGDFNHGFTYSGHPVCAAVAHANVAALRDEGIVQRVKDDIGPYMQKRWRETFSRFEHVDDVRGVGMVQAFTLVKNKAKRELFPDFGEIGTLCRDIFFRNNLIMRACGDHIVSAPPLVMTRAEVDEMLAVAERCLEEFEQTLKARGLA
notes: omega-transaminase / (S)-selective amine transaminase of Chromobacterium violaceum, GenBank WP_011135573, in pET28a(+); No tag cleavage is described; also called Cv-ATA; Cv-TA; source: E. coli BL21(DE3), purified (HisTrap FF crude, gel filtration on Superdex 200)
For the protein B1, the binding result was “binds”.
